Assay results published in patent publication US10189877.

Biological target: DSV^4 VLPs (Dengue virus serotypes 1-4; Hepatitis B virus; Hepatitis B virus)
Assay: sandwich ELISA: mAb coated, DSV^4 VLPs added, detected with peroxidase labelled anti-HBsAg

3H5 (antibody)
ELISA OD: 0.77 OD

4G2 (antibody)
ELISA OD: 0.05 OD
